Data from the nanobody polyreactivity screen of Harvey et al. (2022).

Assay: yeast display, Sf9 membrane polyspecificity reagent, FACS + sequencing; frameworks hold sequencing errors
Outline: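 After 36–48 hours of galactose induction, yeast (Saccharomyces cerevisiae BJ5465) displaying a synthetic nanobody library were stained at 4 °C for 1 hour with 10% biotinylated, detergent-solubilized Sf9 membrane reagent. Streptavidin microbeads enriched the stained cells before FACS sorting into low and high (top ~1%) gates on anti-HA and streptavidin fluorescence. Each clone's polyreactivity label reflects its gate of origin.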

Which “polyreactivity (PSR sort gate)” value does the source give for “QVQLVESGGGLVQAGGSLRLSCAASGRTFRVYAMGWYRQAPGKERELVAAITRGGSTYYADSVKGRFTISRDNAKNTVYLQMNSLKPEDTAVYYCATYSHALRYDYWGQGTQVTVSS” here?
Its value is “high polyreactivity”.

Which “polyreactivity (PSR sort gate)” value does the source give for “QVQLVESGGGLVQAGGSLRLSCAASGRTFRVYTMGWYRPAPGKERELVAVISGRGGSTSYADSVKGRFTISRDNAKNSVYVQINSLKPEDTAVYYCAALYTQSNSASMYYWGQGTQVTVSS” here?
The value was “high polyreactivity”.

For “QVQLVESGGGLVQAGGSLRLSCAASGRTFRWNAMGLYRQAPGKERELVADITSGGSTYYADSVKGRFTISSDNAKNTVYLQMNSLKPEDTAVYYCKAYYYYQFPAPASKYDYWGQGTQVTVSS”, which “polyreactivity (PSR sort gate)” value is on record?
The value was “high polyreactivity”.

Which “polyreactivity (PSR sort gate)” value does the source give for “QVQLVESGGGLVQAGGSLRLSCAASGRTFRWNAMGWYRQAPGKERELVAAITKSGGSTYYADSVKGRFTISRDNAKNTVYLQMNSLIPEDTAVYYCNAEPPLYPWAYPSDSYNFWGQGTQVTVSS” here?
Its value is “low polyreactivity”.

Which “polyreactivity (PSR sort gate)” value does the source give for “QVQLVESGGGLVQAGGSLRLSCAASGRTFRWYAMGWSRPAPGKERELVASISRGGSKSYADSVKGRFTISRDNAKNTVYLQMNSLKPEDTAVYYCNAKYRLEMDLGQGTQVTVSS” here?
Its value is “high polyreactivity”.

For “QVQLVESGGGLVQAGGSLRLSCAASGRTFRWYAMGWYRQAPGKERELVAAIRRSGGGTYYADSVKGRFTISRDNAKNTVYLQMNSLKPEDTAVYYCNTDYPVYQRGVISDGFDYWGQGTQVTVSS”, which “polyreactivity (PSR sort gate)” value is on record?
The value was “low polyreactivity”.

Which “polyreactivity (PSR sort gate)” value does the source give for “QVQLVESGGGLVQAGGSLRLSCAASGRTFRWYPMGWYRQAPGKERELVAAINPGGSTNYADSVKGRFTISRDNANNTVDLQMNSLKPEDSAVYYCNAAGYDALTQNYYWGQGTQVTVSS” here?
The value was “low polyreactivity”.

With “QVQLVESGGGLVQAGGSLRLSCAASGRTFRYAMGWYRQAPGKERELVAAITGSGGSTYYADSVKGRFTISRDNAKNTVYLQMNSLKPEDTAVYYCAAARYDYWGQGTQVTVSS” as the sequence, how does the “polyreactivity (PSR sort gate)” value read?
The value was “high polyreactivity”.

Which “polyreactivity (PSR sort gate)” value does the source give for “QVQLVESGGGLVQAGGSLRLSCAASGRTFRYKAMGWYRQAPGKERELVAAITWNGGRTYYADSVKGRFTISRDNAKNTVYLQMNSLKPEDTAVYYCAAQGTRVDRYPKYDYWGQGTQVTVSS” here?
Its value is “high polyreactivity”.

Which “polyreactivity (PSR sort gate)” value does the source give for “QVQLVESGGGLVQAGGSLRLSCAASGRTFRYNALGWYRQAPGKETELVAAISGRGSSTYYADSVKGRFTISRDNAKNTVYLQMNSLKPEDTAVYYCAALPASVRRPGWHDYWGQGTEVTVSS” here?
Its value is “high polyreactivity”.

Which “polyreactivity (PSR sort gate)” value does the source give for “QVQLVESGGGLVQAGGSLRLSCAASGRTFRYNAMGWYRQAPGKERELVAAITWSGGSTYYADSVKGRFTISRDNAKNTVYLQMNSLKPEDTAVYYCNKVTWHQGHDYWGQGTQVTVSS” here?
Its value is “low polyreactivity”.

For “QVQLVESGGGLVQAGGSLRLSCAASGRTFRYNAMGWYRQAPGKERELVASITSGGSTNYADSVKGRFTISRDNAKNTVYLQMNSLIPEDTAVYYCAADERRPYWQHSIGSGRPFDYWGQGTQVTVSS”, which “polyreactivity (PSR sort gate)” value is on record?
The value was “low polyreactivity”.

For “QVQLVESGGGLVQAGGSLRLSCAASGRTFRYNAMGWYRQAPGKERELVATISSSGGSTSYADSVKGRFTISRDNAKNTVYLQMNSLKPEDTAVYYCAADEWGVRSEYDYWGQGTQVTVSS”, which “polyreactivity (PSR sort gate)” value is on record?
Its value is “low polyreactivity”.

For “QVQLVESGGGLVQAGGSLRLSCAASGRTFRYNTMGWYRQAPGKERELVAAITWSGGRTYYADSVKGRFTISRDNAKNTVYLQMNSLKPEDTAVYYCNADVPYSRSIYGFYYWGQGTQVTVSS”, which “polyreactivity (PSR sort gate)” value is on record?
Its value is “high polyreactivity”.

Which “polyreactivity (PSR sort gate)” value does the source give for “QVQLVESGGGLVQAGGSLRLSCAASGRTFRYNVMGWYRQAPGKERELVASISRISGSTYYADSVKGRFTISRDNAKNTVYLQMNSLKPEDTADYYARAAGEYDYWGQGTQVTVSS” here?
Its value is “high polyreactivity”.

For “QVQLVESGGGLVQAGGSLRLSCAASGRTFRYYAMGWYRQAPGKERELVAAISQTGARTYYADSVKGRFTISRDNAKNTVYLQMNSLKPEDTAVYYCNAYSRSGHQSDGYDYWGQGTQVTVSS”, which “polyreactivity (PSR sort gate)” value is on record?
Its value is “high polyreactivity”.

For “QVQLVESGGGLVQAGGSLRLSCAASGRTFRYYAMGWYRQAPGKERELVAAISSGGNTYYADSVKGRFTISRDNAKNTVYLQMNSLKPEDTAVYYCAAKVHYSAHRFGYWGQGTQVTVSS”, which “polyreactivity (PSR sort gate)” value is on record?
The value was “high polyreactivity”.

For “QVQLVESGGGLVQAGGSLRLSCAASGRTFRYYAMGWYRQAPGKERELVAAISSGGSTNYADSVKGRFTISRDNAKITVYLQMNSLKPEDTAVYYCAALWSGNKFNYWGQGTQVTVSS”, which “polyreactivity (PSR sort gate)” value is on record?
Its value is “low polyreactivity”.

Which “polyreactivity (PSR sort gate)” value does the source give for “QVQLVESGGGLVQAGGSLRLSCAASGRTFRYYAMGWYRQAPGKERELVAAISSSGDRTYYADSVKGRFTISRDNAKKTVYLQMNSLKPEDTAVYYCAADRGARGDYWGQGTQVTVSS” here?
The value was “high polyreactivity”.

With “QVQLVESGGGLVQAGGSLRLSCAASGRTFRYYAMGWYRQAPGKERELVAAITSGGSTYYADSVKGRFTISRDNAKNTVYLQMNSLKPEDTAVYYCAAVPAGLWATYPQFRYGYWGQGTQVTVSS” as the sequence, how does the “polyreactivity (PSR sort gate)” value read?
Its value is “high polyreactivity”.

With “QVQLVESGGGLVQAGGSLRLSCAASGRTFRYYAMGWYRQAPGKERELVADISWSGGRTTYADSVKGRFTISRDNAKNTVYLQMNSLKPEDTAVYYCAKVLYYPSNDYWGQGSQVTVSS” as the sequence, how does the “polyreactivity (PSR sort gate)” value read?
The value was “high polyreactivity”.

For “QVQLVESGGGLVQAGGSLRLSCAASGRTFRYYAMGWYRQAPGKERELVATISSGGSTNYADSVKGRFTISRDNAKNTVYLQMNSLKPEDTAVYYCNARRSTDPARYYWGQGTQVTVSS”, which “polyreactivity (PSR sort gate)” value is on record?
The value was “high polyreactivity”.

For “QVQLVESGGGLVQAGGSLRLSCAASGRTFRYYTMGWYRPAPGKEREFVAAISSTGGTYYADSVKGRFTISRDNAKNTVYLQMNSLKPEDTAVYYCAATFIQVVVNVQLYDYDYWGQGTQVTVSS”, which “polyreactivity (PSR sort gate)” value is on record?
Its value is “low polyreactivity”.

Which “polyreactivity (PSR sort gate)” value does the source give for “QVQLVESGGGLVQAGGSLRLSCAASGRTFRYYTMGWYRQAPGKEREFVAAISSTGGTYYADSVKGRFTISRDNAKNTVYLQMNSQKPEDTAVYYCAATVIQVVVNVQLYDYDYWGQGTEVTVSS” here?
The value was “low polyreactivity”.

With “QVQLVESGGGLVQAGGSLRLSCAASGRTFRYYTMGWYRQAPGKERELVASISWSGGSTYYADSVKGRFTISRDNAKNTVYLQMNSLKPEDTAVYYCNAVYGYRGVTNMDYWGQGTQVTVSS” as the sequence, how does the “polyreactivity (PSR sort gate)” value read?
Its value is “high polyreactivity”.

Which “polyreactivity (PSR sort gate)” value does the source give for “QVQLVESGGGLVQAGGSLRLSCAASGRTFRYYVMGWYIQAPAKERELVARISYSAGSTYYADSVKGRFTISRDNAKKTVYFQMNSLKPEDTAVDYCNAGGNFKDYGHYYWGQCTQVTVSS” here?
The value was “high polyreactivity”.

Which “polyreactivity (PSR sort gate)” value does the source give for “QVQLVESGGGLVQAGGSLRLSCAASGRTFRYYVMGWYRPATGTERELVAGISGSGGNTYYADSVKGRFTISRDNAKNTVYLQMNSLKPEDTAVYYCNAYSPYAEYDYWGQGTQVTVSS” here?
The value was “high polyreactivity”.

Which “polyreactivity (PSR sort gate)” value does the source give for “QVQLVESGGGLVQAGGSLRLSCAASGRTFRYYVMGWYRQAPGKERELVASITWRGTSTYYADSVKGRFTISRDNAKNTVYLQMNSLKPEDTAVYYCNAQGVYFRWSGYDYWGQGTQVTVSS” here?
Its value is “high polyreactivity”.

With “QVQLVESGGGLVQAGGSLRLSCAASGRTFRYYVMGWYRQAPGKERELVATITSNGDSTYYADSVKGRFTISRDNAKNTVYLQMNSLKPEDTAVYYCAVRWRDYRGSYRGFEYWGQGTQVTVSS” as the sequence, how does the “polyreactivity (PSR sort gate)” value read?
The value was “high polyreactivity”.

With “QVQLVESGGGLVQAGGSLRLSCAASGRTFSAYAMGWYRQAPGKERELVAAISRRGGSTYYADSVKGRFTISRDNAKNTVYLQMNSLKPEDTAVYYCAAKIYYRSRAEMDWGQGTQVTVSS” as the sequence, how does the “polyreactivity (PSR sort gate)” value read?
The value was “high polyreactivity”.

With “QVQLVESGGGLVQAGGSLRLSCAASGRTFSDNAMGWYRQAPGKERELVAASSRSGGRTYYADSVKGRFTISRDNAKNTVYLQMNSLKPEDTAVYYCAAAPSVSGTRLYEYWGQGTQVTVSS” as the sequence, how does the “polyreactivity (PSR sort gate)” value read?
Its value is “high polyreactivity”.

Which “polyreactivity (PSR sort gate)” value does the source give for “QVQLVESGGGLVQAGGSLRLSCAASGRTFSDYAMGWYRQAPAKERELVAAISKSGGRTYYADSVKGRFTISRDNAKNTVYLQMNSLKPEDTAVYYCAADPLTELAFYSWGQGTQVTVSS” here?
The value was “high polyreactivity”.
